Source: the supplement of paper PMC9112550, “Optimization of the antimicrobial peptide Bac7 by deep mutational scanning” (BMC Biology, 2022)

Test system: Escherichia coli TOP10
Assay: shrunken log2 fold change of peptide-encoding DNA abundance (4.5 h post-induction vs induction); higher = less antimicrobial activity (less host growth inhibition)
Settings: time post-induction: 4.5 h; library: site-saturation at positions 5, 18, 19, 20
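Further: peptides expressed intracellularly from a pBAD plasmid library in pooled LB shake-flask culture, induced with 0.3% L-arabinose, DNA abundance read by NGS, three biological replicates, DESeq2 with apeglm shrinkage.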

Row | Sequence | shrunken log2 fold change
1 | RRIRRRPPRLPRPRPRPVAPPRP | 0.436
2 | RRIRRRPPRLPRPRPRPVCTPRP | 0.575
3 | RRIRRRPPRLPRPRPRPVDFPRP | 0.178
4 | RRIRRRPPRLPRPRPRPVEFPRP | 0.0107
5 | RRIRRRPPRLPRPRPRPVEKPRP | -0.00451
6 | RRIRRRPPRLPRPRPRPVEQPRP | 0.0679
7 | RRIRRRPPRLPRPRPRPVEYPRP | -0.00275
8 | RRIRRRPPRLPRPRPRPVFQPRP | 0.00379
9 | RRIRRRPPRLPRPRPRPVGIPRP | 0.12
10 | RRIRRRPPRLPRPRPRPVGQPRP | 0.0153
11 | RRIRRRPPRLPRPRPRPVHTPRP | 0.0317
12 | RRIRRRPPRLPRPRPRPVITPRP | -0.554
13 | RRIRRRPPRLPRPRPRPVKPPRP | 0.265
14 | RRIRRRPPRLPRPRPRPVKQPRP | -0.0104
15 | RRIRRRPPRLPRPRPRPVLTPRP | 0.386
16 | RRIRRRPPRLPRPRPRPVMKPRP | -0.025
17 | RRIRRRPPRLPRPRPRPVMSPRP | 0.042
18 | RRIRRRPPRLPRPRPRPVNRPRP | -0.0157
19 | RRIRRRPPRLPRPRPRPVNWPRP | 0.439
20 | RRIRRRPPRLPRPRPRPVNYPRP | -0.291
21 | RRIRRRPPRLPRPRPRPVQDPRP | 0.252
22 | RRIRRRPPRLPRPRPRPVQIPRP | 0.14
23 | RRIRRRPPRLPRPRPRPVSVPRP | 0.308
24 | RRIRRRPPRLPRPRPRPVVMPRP | -0.0785
25 | RRIRRRPPRLPRPRPRPVWLPRP | 0.175

Row | Sequence | shrunken log2 fold change
26 | RRIRRRPPRLPRPRPRPVYEPRP | 0.15
27 | RRIRRRPPRLPRPRPRPWCFPRP | -0.0808
28 | RRIRRRPPRLPRPRPRPWCWPRP | 0.123
29 | RRIRRRPPRLPRPRPRPWDKPRP | 0.0425
30 | RRIRRRPPRLPRPRPRPWDVPRP | -0.149
31 | RRIRRRPPRLPRPRPRPWEFPRP | 0.00288
32 | RRIRRRPPRLPRPRPRPWFAPRP | 0.204
33 | RRIRRRPPRLPRPRPRPWFLPRP | -0.19
34 | RRIRRRPPRLPRPRPRPWGIPRP | -0.24
35 | RRIRRRPPRLPRPRPRPWHMPRP | 0.0729
36 | RRIRRRPPRLPRPRPRPWHQPRP | -0.111
37 | RRIRRRPPRLPRPRPRPWLWPRP | 0.0836
38 | RRIRRRPPRLPRPRPRPWNRPRP | -0.049
39 | RRIRRRPPRLPRPRPRPWNTPRP | -0.214
40 | RRIRRRPPRLPRPRPRPWPFPRP | -0.0442
41 | RRIRRRPPRLPRPRPRPWSWPRP | -0.0122
42 | RRIRRRPPRLPRPRPRPWTSPRP | -0.0576
43 | RRIRRRPPRLPRPRPRPWVHPRP | 0.000557
44 | RRIRRRPPRLPRPRPRPWYYPRP | -0.293
45 | RRIRRRPPRLPRPRPRPYAAPRP | 0.395
46 | RRIRRRPPRLPRPRPRPYAFPRP | 0.0067
47 | RRIRRRPPRLPRPRPRPYAWPRP | 0.157
48 | RRIRRRPPRLPRPRPRPYDMPRP | -0.532
49 | RRIRRRPPRLPRPRPRPYEVPRP | -0.0692
50 | RRIRRRPPRLPRPRPRPYFNPRP | -0.2

Row | Sequence | shrunken log2 fold change
51 | RRIRRRPPRLPRPRPRPYFQPRP | -0.189
52 | RRIRRRPPRLPRPRPRPYHFPRP | -0.116
53 | RRIRRRPPRLPRPRPRPYHWPRP | -0.48
54 | RRIRRRPPRLPRPRPRPYHYPRP | -0.717
55 | RRIRRRPPRLPRPRPRPYKSPRP | -0.239
56 | RRIRRRPPRLPRPRPRPYNHPRP | -0.8
57 | RRIRRRPPRLPRPRPRPYQCPRP | 0.0675
58 | RRIRRRPPRLPRPRPRPYSIPRP | 0.0088
59 | RRIRRRPPRLPRPRPRPYTDPRP | -0.0165
60 | RRIRRRPPRLPRPRPRPYTVPRP | -0.325
61 | RRIRRRPPRLPRPRPRPYWIPRP | -0.918
62 | RRIRRRPPRLPRPRPRPYWMPRP | -0.205
63 | RRIRRRPPRLPRPRPRPYYEPRP | -0.572
64 | RRIRSRPPRLPRPRPRPACCPRP | 0.303
65 | RRIRSRPPRLPRPRPRPADQPRP | 0.58
66 | RRIRSRPPRLPRPRPRPAEQPRP | 0.0415
67 | RRIRSRPPRLPRPRPRPAFSPRP | -0.145
68 | RRIRSRPPRLPRPRPRPAIHPRP | -0.912
69 | RRIRSRPPRLPRPRPRPAIPPRP | -0.139
70 | RRIRSRPPRLPRPRPRPALYPRP | -0.124
71 | RRIRSRPPRLPRPRPRPAMCPRP | -0.185
72 | RRIRSRPPRLPRPRPRPAMDPRP | 0.0404
73 | RRIRSRPPRLPRPRPRPANKPRP | -0.283
74 | RRIRSRPPRLPRPRPRPANQPRP | -0.116
75 | RRIRSRPPRLPRPRPRPAPLPRP | 0.163
